Experimental findings from patent US6207816 are described below.

Data set [1] addresses T1, KGF (hKGF) (Homo sapiens) (UniProt P21781).
T1 sequence: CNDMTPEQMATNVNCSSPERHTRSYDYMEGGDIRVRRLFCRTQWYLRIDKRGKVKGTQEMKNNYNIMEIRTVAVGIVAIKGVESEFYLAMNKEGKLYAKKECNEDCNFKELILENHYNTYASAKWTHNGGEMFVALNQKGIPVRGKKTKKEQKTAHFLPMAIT
The data set can be described thus: filter. Conditions: 2'-F pyrimidines.

Data set [2] addresses T1, KGF (hKGF) (Homo sapiens). As to the kind of experiment: competition. Conditions: 2'-F pyrimidines; for IC50: PC-3 assay.

Take “GGGAGGACGAUGCGGNGACUGAUUUUUCCUUGNBCAGUGUAAUUUCCUGGCUGCCCCAGACGACUCGCCCGA [38F]”: the Kd (as a rule, the constant that tells how readily two partners part at equilibrium) in data set [1] (DPBS, 37 C) is 0.33 nM. For the sequence “GGGAGGACGAUGCGGNGACUGAUUUUUCCUUGNBCAGUGUAAUUUCCUGGCUGCCCCAGACGACUCGCCCGA [38F (K38F)]”, in data set [2], the IC50 – broadly, the concentration needed to halve the response being measured – turned out to be 0.6 nM. In addition, the Ki (in general, the dissociation constant of the complex between target and ligand, obtained from inhibition or displacement) in data set [2] (PC-3 cells, 20 nM on NIH3T3/FGFR-2) worked out at 0.22 nM. In data set [1] (second column 0.94-2.57), “GGGAGGACGAUGCGGCAANNNNNNNCUCUCUCCUGGCGUUCCGCAACCCGCCCCCAGACGACUCGCCCGA [19F]” gave a Kd of 1.5 nM. In turn, “GGGAGGACGAUGCGGGGACAAWYAGCGGUGUCUUUUCAUUUNKAUCCUCCGACRUCCCAGACGACUCGCCCGA [56F]” came in with a Kd in data set [1] (biphasic, 32% high affinity, Kd2 3.00 nM) of 0.07 nM. Sequence “GGGAGGACGAUGCGGGAAUUAACAGGGCCAGAAUUCUCAUCUNNCUUCCCGUGACCCAGACGACUCGCCCGA [12F]” registered a Kd in data set [1] (DPBS, 37 C) of 1.38 nM.

“GGGAGGACGAUGCGGGAAUUCCCAGCGCUUGACUGAUACAAACNUUCCCGUGCCGCAGACGACUCGCCCGA [16F]” had a Kd in data set [1] (biphasic, high affinity 49%, Kd2 3.39 nM) of 0.83 nM. That is a sub-nanomolar value. Sequence “GGGAGGACGAUGCGGGGACAAWYAGCGGUGUCUUUUCAUUUNKAUCCUCCGACRUCCCAGACGACUCGCCCGA [56F (K56F)]” registered an IC50 in data set [2] of 1 nM.
